Results as given in article PMC4990970 (Scientific Reports, 2016).

Columns and labels:
[1] = target: T1, Calmodulin (CaM) (UniProt P0DP23 1-149); assay: ITC; iTC200, room temperature, 20 mM Tris-HCl pH 7.5, 500 mM NaCl, 5 mM EGTA (apo-CaM, absence of calcium); 0.05-0.1 mM in the cell, 0.5-1.0 mM in the syringe; conditions: both partners purified
T1 construct: Calmodulin, full length; apo-CaM (5 mM EGTA) and holo-CaM (10 mM CaCl2) are the same protein; the assays tell them apart; Se-Met-substituted apo-CaM was used for anomalous signals in the structure determination; also called apo-CaM; Ca2+-free CaM; source: Escherichia coli, purified using chromatography techniques

[2] = target: T1, Calmodulin (CaM); assay: ITC; iTC200, room temperature, 20 mM Tris-HCl pH 7.5, 500 mM NaCl, 10 mM CaCl2 (holo-CaM, presence of calcium); 0.05-0.1 mM in the cell, 0.5-1.0 mM in the syringe; conditions: both partners purified

B1: AtBAG5-IQR (AtBAG5-long with Ile57, Gln58 and Arg62 substituted with alanine) (domain or fragment)
chain: NATAAAARAASGYASYRIRNLYKKISSINREANRVQSIIQRQETVDAIRSDEKERLRMNETLMALLLKLDSVPGLDPTIREARRKVSRKIVGMQEILDSISETKD
notes: AtBAG5, Arabidopsis thaliana, residues 49-153 (AtBAG5-long) with three conserved residues of the IQ motif changed to alanine; also called IQ motif mutant; AtBAG5-IQR mutant; source: Escherichia coli, purified using chromatography techniques
B1 showed a Kd [1] of 1160 µM and a Kd [2] of 7.14 µM.
